{"source": "patent US20240318157A1", "about": "“Neurotensin Variants And Tagged Proteins Comprising Neurotensin Or Sortilin Propeptide” (Amicus Therapeutics, Inc., priority 2021, published 2024)", "molecular_target": "T1, extracellular soluble domain of sortilin, residues 78-755 (Homo sapiens, UniProt Q99523)", "T1 construct": "the extracellular soluble domain of sortilin, residues 78-755, was expressed in Expi293F cell line; made in house; host or cells: Expi293F", "test": "microplate binding assay, enzymic activity of sortilin-bound GAA tagged protein", "description": "FIG. 2. α-D-glucopyranoside activity of sortilin-bound GAA tagged protein. Extracellular soluble sortilin domain with a C-terminal TwinStrep tag for immobilized on a 96-well microplate. […] A fluorogenic 4-methylumbelliferyl-α-D-glucopyranoside substrate was used to measure α-D-glucopyranoside activity of the sortilin-bound tagged proteins.\nFor a microplate binding assay, the extracellular soluble domain of sortilin, residues 78-755, was expressed in Expi293F cell line (using Expi293 Expression System; Thermo Fisher, A14635) with a C-terminal TwinStrep affinity tag. Harvests were collected after 5 days. Conditioned media was incubated with StrepTactin XT coated microplates (IBA, 2-4101-001) for 1 hour to immobilize sortilin to the plates. After several washes, wells coated with sortilin were incubated with varying doses of NT-GAA, GAA-NT or GAA diluted into PBS for 30 minutes. The unbound protein was then washed away. The α-D-glucopyranoside activity of the bound GAA tagged protein was measured using a fluorogenic substrate, 4-methylumbelliferyl-α-D-glucopyranoside, at pH 4.8. […] The inflection point in both binding curves indicates bivalency of sortilin for neurotensin."}
{"substance": "GAA: GAA with no NT tag; lysosomal alpha-glucosidase (RefSeq: NM_000152.5) [reference compound]", "values": [{"measurement": "α-D-glucopyranoside activity of sortilin-bound protein", "setting": "immobilized sortilin, 30 minutes in PBS, 4-methylumbelliferyl-α-D-glucopyranoside, pH 4.8, FIG. 2", "result": "no α-D-glucopyranoside activity"}, {"measurement": "binding to sortilin", "setting": "inferred from absence of activity in sortilin-coated wells, FIG. 2", "result": "did not bind to sortilin"}]}
